To fix the notation:
B1: long-acting GDF15 fusion protein (dimer) FM9-1 + Fc_hole (ΔN2, S64R; linker GS(G4S)3) (Fc fusion)
chain 1: APEAAGGPSVFLFPPKPKDTLMISRTPEVTCVVVDVSHEDPEVKFNWYVDGVEVHNAKTKPREEQYASTYRVVSVLTVLHQDWLNGKEYKCKVSNKALPAPIEKTISKAKGQPREPQVYTLPPSREEMTKNQVSLWCLVKGFYPSDIAVEWESNGQPENNYKTTPPVLDSDGSFFLYSKLTVDKSRWQQGNVFSCSVMHEALHNHYTQKSLSLSPGKGSGGGGSGGGGSGGGGSNGDHCPLGPGRCCRLHTVRASLEDLGWADWVLSPREVQVTMCIGACPSQFRAANMHAQIKTRLHRLKPDTVPAPCCVPASYNPMVLIQKTDTGVSLQTYDDLLAKDCHCI
chain 2: APEAAGGPSVFLFPPKPKDTLMISRTPEVTCVVVDVSHEDPEVKFNWYVDGVEVHNAKTKPREEQYASTYRVVSVLTVLHQDWLNGKEYKCKVSNKALPAPIEKTISKAKGQPREPQVYTLPPSREEMTKNQVSLSCAVKGFYPSDIAVEWESNGQPENNYKTTPPVLDSDGSFFLVSKLTVDKSRWQQGNVFSCSVMHEALHNHYTQKSLSLSPGK
B2: long-acting GDF15 fusion protein (dimer) FM9-2 + Fc_hole (ΔN2, S64R; linker GS(G4S)5) (Fc fusion)
chain 1: APEAAGGPSVFLFPPKPKDTLMISRTPEVTCVVVDVSHEDPEVKFNWYVDGVEVHNAKTKPREEQYASTYRVVSVLTVLHQDWLNGKEYKCKVSNKALPAPIEKTISKAKGQPREPQVYTLPPSREEMTKNQVSLWCLVKGFYPSDIAVEWESNGQPENNYKTTPPVLDSDGSFFLYSKLTVDKSRWQQGNVFSCSVMHEALHNHYTQKSLSLSPGKGSGGGGSGGGGSGGGGSGGGGSGGGGSNGDHCPLGPGRCCRLHTVRASLEDLGWADWVLSPREVQVTMCIGACPSQFRAANMHAQIKTRLHRLKPDTVPAPCCVPASYNPMVLIQKTDTGVSLQTYDDLLAKDCHCI
chain 2: B1 chain 2
B3: long-acting GDF15 fusion protein (dimer) FM9-4 + Fc_hole (ΔN2, S64R; linker GS(EEEA)6) (Fc fusion)
chain 1: APEAAGGPSVFLFPPKPKDTLMISRTPEVTCVVVDVSHEDPEVKFNWYVDGVEVHNAKTKPREEQYASTYRVVSVLTVLHQDWLNGKEYKCKVSNKALPAPIEKTISKAKGQPREPQVYTLPPSREEMTKNQVSLWCLVKGFYPSDIAVEWESNGQPENNYKTTPPVLDSDGSFFLYSKLTVDKSRWQQGNVFSCSVMHEALHNHYTQKSLSLSPGKGSEEEAEEEAEEEAEEEAEEEAEEEANGDHCPLGPGRCCRLHTVRASLEDLGWADWVLSPREVQVTMCIGACPSQFRAANMHAQIKTRLHRLKPDTVPAPCCVPASYNPMVLIQKTDTGVSLQTYDDLLAKDCHCI
chain 2: B1 chain 2
B4: long-acting GDF15 fusion protein (dimer) FM9-3 + Fc_hole (ΔN2, S64R; linker GS(G4S)7) (Fc fusion)
chain 1: APEAAGGPSVFLFPPKPKDTLMISRTPEVTCVVVDVSHEDPEVKFNWYVDGVEVHNAKTKPREEQYASTYRVVSVLTVLHQDWLNGKEYKCKVSNKALPAPIEKTISKAKGQPREPQVYTLPPSREEMTKNQVSLWCLVKGFYPSDIAVEWESNGQPENNYKTTPPVLDSDGSFFLYSKLTVDKSRWQQGNVFSCSVMHEALHNHYTQKSLSLSPGKGSGGGGSGGGGSGGGGSGGGGSGGGGSGGGGSGGGGSNGDHCPLGPGRCCRLHTVRASLEDLGWADWVLSPREVQVTMCIGACPSQFRAANMHAQIKTRLHRLKPDTVPAPCCVPASYNPMVLIQKTDTGVSLQTYDDLLAKDCHCI
chain 2: B1 chain 2
B5: long-acting GDF15 fusion protein (dimer) FM9-5 + Fc_hole (ΔN2, S64R; linker GSGGSS(PT)10) (Fc fusion)
chain 1: APEAAGGPSVFLFPPKPKDTLMISRTPEVTCVVVDVSHEDPEVKFNWYVDGVEVHNAKTKPREEQYASTYRVVSVLTVLHQDWLNGKEYKCKVSNKALPAPIEKTISKAKGQPREPQVYTLPPSREEMTKNQVSLWCLVKGFYPSDIAVEWESNGQPENNYKTTPPVLDSDGSFFLYSKLTVDKSRWQQGNVFSCSVMHEALHNHYTQKSLSLSPGKGSGGSSPTPTPTPTPTPTPTPTPTPTNGDHCPLGPGRCCRLHTVRASLEDLGWADWVLSPREVQVTMCIGACPSQFRAANMHAQIKTRLHRLKPDTVPAPCCVPASYNPMVLIQKTDTGVSLQTYDDLLAKDCHCI
chain 2: B1 chain 2

In this experiment the target is GDF15 receptors GFRAL and RET, overexpressed together on HEK293 cells (UniProt Q6UXV0 19-394; P07949 29-1114, limits assumed). Briefly: cell-based or functional assay.
Chain of GDF15 receptors GFRAL and RET, overexpressed together on HEK293 cells (Q6UXV0 19-394 limits assumed, chain 1 of 2): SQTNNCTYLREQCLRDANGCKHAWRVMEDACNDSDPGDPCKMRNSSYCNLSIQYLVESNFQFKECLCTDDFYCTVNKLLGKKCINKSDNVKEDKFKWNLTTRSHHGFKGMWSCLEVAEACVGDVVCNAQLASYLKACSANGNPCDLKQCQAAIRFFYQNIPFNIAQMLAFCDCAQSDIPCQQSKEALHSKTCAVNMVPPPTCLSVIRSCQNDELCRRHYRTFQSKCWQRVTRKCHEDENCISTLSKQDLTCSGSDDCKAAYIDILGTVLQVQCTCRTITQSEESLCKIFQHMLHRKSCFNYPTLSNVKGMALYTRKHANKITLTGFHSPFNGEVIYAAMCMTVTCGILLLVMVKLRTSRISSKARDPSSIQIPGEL
Chain of GDF15 receptors GFRAL and RET, overexpressed together on HEK293 cells (P07949 29-1114 limits assumed, chain 2 of 2): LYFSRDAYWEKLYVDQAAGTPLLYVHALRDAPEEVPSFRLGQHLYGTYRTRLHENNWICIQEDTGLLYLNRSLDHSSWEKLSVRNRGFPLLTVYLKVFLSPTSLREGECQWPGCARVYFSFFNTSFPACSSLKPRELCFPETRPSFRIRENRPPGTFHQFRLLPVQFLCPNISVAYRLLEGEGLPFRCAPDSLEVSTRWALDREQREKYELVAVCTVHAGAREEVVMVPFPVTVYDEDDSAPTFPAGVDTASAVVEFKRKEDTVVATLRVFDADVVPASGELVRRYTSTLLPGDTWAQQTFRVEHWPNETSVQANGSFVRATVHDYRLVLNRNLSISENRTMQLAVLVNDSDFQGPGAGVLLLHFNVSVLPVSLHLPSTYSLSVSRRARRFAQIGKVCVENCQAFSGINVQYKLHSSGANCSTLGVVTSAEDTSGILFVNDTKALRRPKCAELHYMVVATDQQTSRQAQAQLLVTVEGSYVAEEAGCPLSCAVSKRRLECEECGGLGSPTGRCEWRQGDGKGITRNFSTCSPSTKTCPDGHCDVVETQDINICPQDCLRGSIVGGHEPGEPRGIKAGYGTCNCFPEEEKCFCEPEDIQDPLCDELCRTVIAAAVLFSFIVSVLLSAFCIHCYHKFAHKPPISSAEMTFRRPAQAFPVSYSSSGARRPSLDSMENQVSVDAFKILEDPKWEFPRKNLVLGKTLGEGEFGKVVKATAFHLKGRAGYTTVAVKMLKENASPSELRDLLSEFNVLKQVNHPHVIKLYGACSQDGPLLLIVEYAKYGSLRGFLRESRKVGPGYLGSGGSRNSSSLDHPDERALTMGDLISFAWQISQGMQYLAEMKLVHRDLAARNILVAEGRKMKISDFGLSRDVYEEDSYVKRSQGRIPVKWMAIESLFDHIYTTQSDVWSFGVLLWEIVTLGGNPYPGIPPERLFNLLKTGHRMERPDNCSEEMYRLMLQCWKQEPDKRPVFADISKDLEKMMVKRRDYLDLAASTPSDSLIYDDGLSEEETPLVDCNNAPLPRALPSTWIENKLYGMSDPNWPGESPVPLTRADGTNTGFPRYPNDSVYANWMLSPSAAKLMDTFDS
The term EC50 denotes the midpoint of the concentration-response curve. High values mean lower potency in that assay, low ones higher potency in that assay. For the molecule B1, a half-maximal effect (EC50) was put at 9 nM and the “Emax (%)” value was found to be 97.6%.

In the case of B2, the concentration giving a half-maximal response (EC50) was 9.5 nM and the “Emax (%)” value stood at 111%.

Take B3: the “EC50” value worked out at 23.6 nM and the “Emax (%)” value was 128%.

B4: the “EC50” value came to 9.3 nM and the “Emax (%)” value was 95.6%.

As for B5, the “EC50” value was determined as 5.3 nM and the “Emax (%)” value amounted to 100%.

The record behind these values is patent US20230002460A1 (YUHAN, published 2023).
